A short description of this data set: soluble on expression in E. coli; label from the status in PepcDB or PDB records.
As to “MGSDKIHHHHHHMRRKIPSTTALVSFEAAARHESFTKAAHELSLTQGAVCRQIGGLEEFLGIELFRRSRRGVKLTEAGLSYSRRVAQQLDAVERDTLSVMGEQGAHAIELAVVPTFGTQWLLPRLKDFQHKHPDVTVHLTNRTRPFLFADTDFDAAIYFGDADWSGTQSHRLMGENSLPVCSPSFLGGRGSLKASELAELPLLQQTTRPYAWRQWFNAQNLNVARDMTGPRYELFSMLAQAAMHDMGVALIPPFLILRELHEKRLVIASISALPSNKAYHLMIPERKVESASLTAFRDWLVNQAHDYSLPQDKEQALV”, the “soluble on expression in E. coli” value was “not soluble”. The value for “MKTPAILLLLFLFMMSLAQSDEEQSGKEPPEKDDVLVILAEDNSTLLNNNQTMYDPSSEEKESDKPKFNLLETYLPLFIFVLDLPTEDRETLKAYVKDKTYEKLKYVIDSKVKMNRNEKNVLGRINESLVQSIDNLEHFDEITVDVVNGYHNASVYNAIRSVWLKQLRPFLPLIDQMAIQQKSSETEKMSIWARLWENLSVWMYGKKKLNECYAMEPKCVRHALELLNFEQRIDLDLAAYENKFDSVDGIIRERLGENRKSSELDEWLHRNRPPKALQAILDERSDIEEEALQRLRDNGVLSSLKHYYKAVIESRSHEEQEDIRHFFDIMNDTFARCFDPLRGQYHDF” was “not soluble”; that for “MGSDKIHHHHHHMLYTENLQSLIDSGKGYNVEFKVRVPSKVRELTEEICAFANADGGYLLIGVDDNGQVVDTNLENDKRSAIQGSISEISPALHCELYSVNVGNKTVWVIDVPSGKDKPYIFSGSIYVREGANSQKLRTAEEMRSFFQECNKIFFDHIPCHWFNIYTDADEQMIKGFRTEAKLSPSTPDKQIFENLELFIENGTAKNGAAMFFGKQPERKFPHAVTRCVLFKGTNKVYIIDDKTFGGSLYQQYLQAMSWLESKLQVAYKIEGAGPREEIWEIPLTVFKEAIINALSHRDYYEQGASIMIEMFDDRVEISNPGGLLPVVAKDFGHKSMTRNPLIFGLFTRMHLVERVASGIPRMQEAMREANLPEPEFHTEGMFTVVFKRKNTNSANRDIVNGIINGIVNENEQTILNLLKAKPGLNASEVAESLSKSWRTTMRYLKSLNDKGLVEFRGAPKTGGYYLTRNI” was “not soluble”. Take “MSLDIAELHRAGDDIKEMMKSEGYYSEPSKYEAELSDGNITFAYSYPIKAFEKFLGYYDRENRIAFNPSISMRTDFSFCLAACRYRKNGKTDTVVLDGYADNKYYKKAKFALDKFRSEYSINGSFDFYIKRYRRYQKAKGLSESSAVAAAVSRALISNVFGDDAAKDDIFVSRYARLVSGSGTRAAHDGISMWLSYPGMDSRDCVAFKVGKSNENLNYGVFPKYSDVATDNAHSIAVNSVFYGTWVSEKFSNVKRLISDHFDINDLLKIGENDMLRLNSILMSGGLIIQTPDSLRILKEILKFKSKNEGFYFTADTGPSIAIFSFDRSLIDEFRENVNDEYIEGSYDFKGYNNRMRDFIREAQEYFTQTPGEDEEDREGHHHHHH”: the “soluble on expression in E. coli” value is “soluble”.

In the case of “MKKTAIALLAWFVSSASLAATPWQKITHPVPGAAQSIGSFANGCIIGADTLPVQSDNYQVMRTDQRRYFGHPDLVMFIQRLSHQAQQRGLGTVLIGDMGMPAGGRFNGGHASHQTGLDVDIFLQLPKTRWSQAQLLRPQALDLVSRDGKHVVPSRWSSDIASLIKLAAQDNDVTRIFVNPAIKQQLCLDAGNDRDWLRKVRPWFQHRAHMHVRLRCPADSLECEDQPLPPPGDGCGAELQSWFEPPKPGTTKPEKKTPPPLPPSCQALLDEHVL”, the “soluble on expression in E. coli” value is “not soluble”. The value for “MMVWTPVNNKMFETFSYLPPLTDEQIAAQVDYIVANGWIPCLEFAEADKAYVSNESAIRFGSVSCLYYDNRYWTMWKLPMFGCRDPMQVLREIVACTKAFPDAYVRLVAFDNQKQVQIMGFLVQRPKTARDFQPANKRSV” was “soluble”; that for “AHHHHHHGSEKQGEKMKRLGKVLHYAKQGFLIVRTNWVPSLNDRVVDKRLQFVGIVKDVFGPVKMPYVAIKPKVSNPEIYVGEVLYVDERKRKESPKKNKEKRMKKKKRLNR” was “not soluble”; that for “MGHHHHHHSHMLRGMARMGGQRRLKALAAPRFWPILRKEYKWAVKPRPGPHPAEKSLPLLLIVRNVLGYAQTAREARKLISEGHFRVDGVVRKDYKFPVGFMDVIEVVDTGEKFRMLPYPVKFFKLHPIPEEEGDLKPVRIENKTTVKGGHVQLNLHDGRNILVRVKDPRNPVEDVYRTMDTLLITVPGQEIKGHIKFGEGAIAIIVGGRNVGRVGVVKSVQKGWGRKRTLVTLEDASGNLFQTSLDYVFVIGLDRPVISLPEGAWK” was “soluble”. The value for “MRITIAGKIGSGKSTVSSELSRITGYTVYSSGTFFRETARKMNMSIEDFNVYSESHPEADYYTDETQKAFMQANDNIIVEGRLAGWISYLNGINAFRIFLYATYYTRLVRFAGRENIDIDSARDLMEKREKSEKERYRKLYGIDVDDLSIYDIVVNTEFMKPPEIAVYIANRIDEMSRKDIFTPRILR” was “not soluble”; that for “MGSDKIHHHHHHMKIAQVAPLWERVPPPSYGGIELVVSHLTNELVRRGHEVTLFASGDSQTLAHLETVCPRALRLDKNVQDYAAYETLELSQVYQNATEFDIIHSHLGISALPLANLVKTPTVHTLHGHFTKDNQNVFSHHHQQPYVSISNAQRQIHLNYIKTVYNGIEPKDYPFISQPKEPPYLAFLGRFSPEKGPHQAIAIAKQSGWRLKMAGKVDIVDAKFFEQEILPHIDGQQIEYLGEINHTEKAELLGNAAATLFPINWQEPFGLVMIESMATGTPVIGMNLGSVPEVIDQGKTGFICRTYEEMIQMIAVTLELDRRDCRESVVNKFSVSHMVDGYEAVYQQIIKDRVNLNGYIHTAKIRF” was “not soluble”; that for “MQFYNRQKELKLMELLDQGKPSFFVITGKRRVGKTELIKQFTRNRKALYLFVDSNKSINILMDEFDRLLKEKLDLPDYIKVDEPENFLKFITSYDRDLVIAIDEFQRFQKVYPSFITQLQRYWDMKPDNCRIFLIVSGSSIGMIRKIFIEEQAPLFKRADNILTIKPFTVLETFEMLDGMGIKNPEEKLNLYFLFGGTVYYYRLFEKYQCTGFDDALEKLIFSEFAPLKNEVREILIEEFGKEHSTYYEIISAISQGRCSMSEISDMTHVSSSSLSPYFYDLIDLLGVVEHRIPVMDNPEKSKRGRYFLKDNFFRFYGRFIYPMYSRYMAGNYSPMLEKVRKEWQSYTGKIFEDIVHELLVEKMISDYPELGSWWNRKGDEIDILGVDHRGRKSLVIEVKNKELAENEAREILELTLDKTKLVKGISGQKLKVGIVAQKVKGRKNLEDDGFLVWELEELIPLEHHHHHH” was “not soluble”. In the case of “MKEPVKPTVKLAEIPPREPRFTPEQERIYARLSVHDPFNMLSEQHKANLIQLMTHGLGYRPIQLS”, the “soluble on expression in E. coli” value is on record as “not soluble”. Consider “MSLAMNNILGLFAHSPLKPLQKHSEKVTECSDLLIPFFQTTFSKNWEQAEEKRLEISQCEREADSLKREIRLKLPRGLFLPIDRTDLLELVTQQDKLANYAKDIAGRMIGRQFGIPEEMQEEFLHYVKRSLDAIHQAHRVIEEMDKLLETGFKGRELKLVNDMIQELDSIEDDTDQMQIKLRKMLYTIESRYNPIDVMFLYKIIEWVGVLADQAQRVGSRIELMLARSEGHHHHHH”, for which the “soluble on expression in E. coli” value is recorded as “soluble”. Next, “SFTSMLSVNQAVSAERKLIDHLIIYIEHEAQRLEDIKRFFSRVTSLHDGIYNEPSDPIANPIAAFKLVKRLKSEWLNVVHSTEAEENIKVLREDYRRMESSLPKLEDLRGAAHGLMRLQDVYNLHVESLVRGHFQQISDPVDFYKLSVSDMLSGDDCFLVGKVAYDLEDYYHSVLWFEEAVRLFRGTEWSPENEGTLEDALDHLAFSHFKVCH”: “not soluble”; “MELTAFRHQVGGHFGILLCNGHVAKPSNLREMAFYKVMNSELKHFSPAFCKEVDVRATVNPSTGQIVVETLEKLDCHKKKSSSKHERSSTGFRQTTDGRVTVDTEKQWNPWAAGCQCKVVERMLKELEPTPFLLLENVVAHYTRPCVLDLKIGTRQHGDDASESKRHRQLMKCRHSTSATLGVRVVGMQLYEAETKSYSYVEKQEGRRIDAAGFRGYVKRFIKCCGRSRAARIRQKLSKLRSLLAEFEGYRFFSASILIAFDAEAADSSSDDAVKVCIIDFAHSTFSGFFEDLAYSGADEGCLLGLDSIVEAMEPIVSKDPVTPSSSFEKKK”: “not soluble”. As for “MFSGGRKVKWNHFGKKYALRFSDYEMEYADLYDALLKKVHEVRADFEGDLAFIDQYGRQVIVSSDKDVREAIQQSKNKLKLHTTLRDGHVIAAADMAEAARGRPARSQSVPPERSYNMYPQRSPSSMDSAPDTYRHHPQQMTRAMSPPPMSTTTGSTHSPPLRQIGETVKTTYSHSGSYGGLYPGGYKGYPYGGGYSNSILYGMPPHNGMLWRFLANPFPFGNAQTRSFIGPNKYHHFGGYNHMYSSGFGGPVW”, the “soluble on expression in E. coli” value is reported as “not soluble”. Next, “MNAPDKTGTDRRAVPAAVDLDALIRAEHRDPFSILGPHDDGKGGQYVRAYLPAALSVRLLARDDGRELAELHMSDVPGFFVGHLEQPQPYLLKINWAGGEQITEDPYSYGPLLG”: “not soluble”. Regarding “MSLESENIISAADKARILAEALPYIRRFSGSVAVIKYGGNAMTEPALKEGFARDVVLLKLVGIHPVIVHGGGPQINAMLEKVGKKGEFVQGMRVTDKEAMDIVEMVLGGHVNKEIVSMINTYGGHAVGVSGRDDHFIKAKKLLIDTPEQNGVDIGQVGTVESIDTGLVKGLIERGCIPVVAPVGVGEKGEAFNINADLVAGKLAEELNAEKLLMMTNIAGVMDKTGNLLTKLTPKRIDELIADGTLYGGMLPKIASAVEAAVNGVKATHIIDGRLPNALLLEIFTDAGIGSMILGGGEDAEGHHHHHH”, the “soluble on expression in E. coli” value is “soluble”. As for “MNGNRAQPMNMPNEPHPKLKLEQYLGIQIKRQRQAQELKLADVARIAGISQGMLSKIENAQVSTSLDNLSRLCDVLGMPMSKLFSQYDQQGSSALLVRADEGLEVVRRGTEKGHTYHLLNHTRGPKKSFEAYMVTMDDASEEFPTFSHPGTEFLHLLEGELIYRHGNQLYPMQAGDSLTFDGDIPHGPEQLVQVPIKLLSIMNYGAQGD”, the “soluble on expression in E. coli” value is given as “not soluble”. In the case of “MGSDKIHHHHHHMSDTLRRKQAADHAMRHWVHQSRGPVPIGSDAHKQMFCNMLLDTHNPYKPAVIDWPALRPDALRRLTSLPIWDIAVQTEGRASVRVATFASTVRDPLLRAALELDAAEEARHKVVLSKLVQAYGIRLAPEPAYPAPKDAEWAWMVTGFSECIDSFFAFGLFRSAQRSGYFPPELVETFEPVIQEEGRHILFFANWFGWYWRNLSWWRRPWLFARVAAVWAYLIWERIGIARGIDADGVARDANFPANTAATVGNALNPRELIELCLVENARRMAGYDTRLLRPTIVPRLARFALRFIRK”, the “soluble on expression in E. coli” value is “not soluble”. The value for “MGSDKIHHHHHHMHVIKAKDDYTYRHTVGVSILSRLIGTWLKLDEVILKELTLGAVLHDIGKVEIPDAILNKPGALTKDEYRIIQDHTVKGYRIIQESGIYSDTVALMALEHHEREDGTGYPYQKTRNEIHLLSKILAVADVFHAMTSDRIYRKGMALYDVLLQMRQDRFGKLEPRITDFFVRRFMEQCIGSKARLNDGSRVEIVFIPYENPICPIVKQGTNYIDLRMSPLYIQELIPVTVKV” was “not soluble”; that for “MSLSRILFLTDLHWDHDYLEGTDPDCADPLCCRRGSGLPPASRPGAGYWGEYSKCDLPLRTLESLLSGLGPAGPFDMVYWTGDIPAHDVWHQTRQDQLRALTTVTALVRKFLGPVPVYPAVGNHESTPVNSFPPPFIEGNHSSRWLYEAMAKAWEPWLPAEALRTLRIGGFYALSPYPGLRLISLNMNFCSRENFWLLINSTDPAGQLQWLVGELQAAEDRGDKVHIIGHIPPGHCLKSWSWNYYRIVARYENTLAAQFFGHTHVDEFEVFYDEETLSRPLAVAFLAPSATTYIGLNPGYRVYQIDGNYSGSSHVVLDHETYILNLTQANIPGEGHHHHHH” was “soluble”.

These data come from the DeepSol protein solubility set.
